The subject of data set [1] is Nc1ncnc2c1ncn2[C@@H]1O[C@H](COP(=O)(O)OP(=O)(O)OP(=O)(O)O)[C@@H](O)[C@H]1O. Description: pyruvate kinase/lactate dehydrogenase-coupled ATPase assay. In kind it is biochemical, Homo sapiens. The note with it: 10 μg/mL poly(U) RNA, 50 nM complex, 5 mM MgAc2, 50 mM KAc, pH 7.5, 37°C.
Data set [2] addresses T1, hSKI complex (hSKI-WT; hSKI2-hSKI3-hSKI8) (Homo sapiens, UniProt Q15477, E424Q).
T1 construct: gene SKIC2; full-length subunits co-expressed in Sf21 insect cells; 3C-cleavable 10xHis tag on TTC37 N-terminus, tag removed; with Superkiller complex protein 3 (tetratricopeptide repeat protein 37); Superkiller complex protein 8 (WD repeat-containing protein 61)
The description is as above. In kind it is biochemical. To be noted: 10 μg/mL poly(U) RNA, 50 nM complex, 5 mM MgAc2, 50 mM KAc, pH 7.5, 37°C.

The target in data set [3] is T2, hSKI complex (hSKI-WT; hSKI2-hSKI3-hSKI8) (Homo sapiens, UniProt Q15477, V341G).
T2 construct: gene SKIC2; full-length subunits co-expressed in Sf21 insect cells; 3C-cleavable 10xHis tag on TTC37 N-terminus, tag removed; with Superkiller complex protein 3 (tetratricopeptide repeat protein 37); Superkiller complex protein 8 (WD repeat-containing protein 61)
The data set is described as above. In kind it is biochemical. To be noted: 10 μg/mL poly(U) RNA, 50 nM complex, 5 mM MgAc2, 50 mM KAc, pH 7.5, 37°C.

The target in data set [4] is T3, hSKI-Δarch (Homo sapiens, UniProt Q15477).
T3 construct: gene SKIC2; Sf21 insect cells; 10xHis tag on TTC37 removed; with Superkiller complex protein 3 (tetratricopeptide repeat protein 37); Superkiller complex protein 8 (WD repeat-containing protein 61)
Described as above. In kind it is biochemical. The note with it: 10 μg/mL poly(U) RNA, 50 nM complex, 5 mM MgAc2, 50 mM KAc, pH 7.5, 37°C. The text has this:
pyruvate kinase/lactate dehydrogenase-coupled ATPase assay on hSKI-Δarch | removal of the hSKI2 arch domain led only to a minor increase in the ATPase activity

The target in data set [5] is hEXO10c (hEXO9 core + hDIS3L D486N) (Homo sapiens, UniProt Q8TF46;Q9Y3B2;Q13868;Q9NQT5;Q9NPD3;Q9NQT4;Q5RKV6;Q15024;Q96B26;Q06265 …, D486N). Description: RNase protection (benzonase); hEXO10c alone, characteristic footprint, lane 1; Binding buffers not in material (Methods sections for RNase protection and cryo-EM sample preparation are empty); hSKI storage buffer 20 mM Hepes pH 7.5, 100 mM NaCl, 2 mM DTT. To be noted: protein: recombinant; tags: TwinStrep-3C on DIS3L N-terminus; copies: 1;1;1;1;1;1;1;1;1;1; label: 32P body-labelled (alpha-32P UTP); single strand.

For orientation: Km means the substrate concentration at which the rate is half of its maximum. As usually defined, the kcat is the maximal rate divided by the concentration of active sites.

Regarding “hSKI complex (hSKI-WT; hSKI2-hSKI3-hSKI8) (Homo sapiens)”, in data set [1], the Km worked out at 149.4 µM and the kcat is 0.685 s⁻¹.

Take `Nc1ncnc2c1ncn2[C@@H]1O[C@H](COP(=O)(O)OP(=O)(O)OP(=O)(O)O)[C@@H](O)[C@H]1O` [ATP]: in data set [2], the ATPase activity abolished result is “the ATPase activity of hSKI was abolished in the case of a mutant complex”. For the same molecule, the “inactive in ATPase assay” value in data set [3] is “V341G substitution (hSKI-THES) and indeed found that it is inactive in ATPase assays”. In addition, in data set [4], the Km turned out to be 121 µM.

B1: GGGC(*UC)48 RNA (ssRNA)
RNA: GGGCUCUCUCUCUCUCUCUCUCUCUCUCUCUCUCUCUCUCUCUCUCUCUCUCUCUCUCUCUCUCUCUCUCUCUCUCUCUCUCUCUCUCUCUCUCUCUCUC
Take B1: in data set [5], the binding result is “binds”.

The record behind these values is PMC8860381 (Molecular Cell, 2022).
